This note sets out measurements from patent US20150361450, “VECTOR FOR THERAPY OF MITOCHONDRIAL DISEASE” (UNIVERSITE DE STRASBOURG, published 2015).

The data set deals with preKARS2 (precursor of human mitochondrial lysyl-tRNA synthetase) (Homo sapiens, UniProt Q15046-2 Q15046-2:1-625). Put plainly: EMSA; 10 mM MgCl2, 30 C. The settings on record: tags: C-terminal 6xHis, thrombin site and N-terminal 6xHis deleted, label: 5'-32P. The protocol:
Purified RNA was dephosphorylated with alkaline phosphatase (Boehringer Mannheim) and labeled at the 59-end with c-32P-ATP using T4 polynucleotide kinase (Promega). The labeled RNA was denatured at 100° C. and then slowly cooled down to the room temperature. For RNA binding assays, the appropriate amount of protein and labeled RNA were mixed in […] of the buffer containing 20 mM Tris-HCl pH 7.5, 150 mM NaCl, 10 mM MgCl2, 5 mM DTT, 10% glycerol, 0.1 mg/ml BSA and incubated at 30° C. for 15 min. The mixture was separated by native 8% PAGE in […] buffer (pH 8.3) and 5% glycerol, followed by Typhoon-Trio (GE Healthcare) scanning and quantification as described in.

Sequence of preKARS2 (precursor of human mitochondrial lysyl-tRNA synthetase) (Q15046 other isoform, or with tags, fused parts or gaps): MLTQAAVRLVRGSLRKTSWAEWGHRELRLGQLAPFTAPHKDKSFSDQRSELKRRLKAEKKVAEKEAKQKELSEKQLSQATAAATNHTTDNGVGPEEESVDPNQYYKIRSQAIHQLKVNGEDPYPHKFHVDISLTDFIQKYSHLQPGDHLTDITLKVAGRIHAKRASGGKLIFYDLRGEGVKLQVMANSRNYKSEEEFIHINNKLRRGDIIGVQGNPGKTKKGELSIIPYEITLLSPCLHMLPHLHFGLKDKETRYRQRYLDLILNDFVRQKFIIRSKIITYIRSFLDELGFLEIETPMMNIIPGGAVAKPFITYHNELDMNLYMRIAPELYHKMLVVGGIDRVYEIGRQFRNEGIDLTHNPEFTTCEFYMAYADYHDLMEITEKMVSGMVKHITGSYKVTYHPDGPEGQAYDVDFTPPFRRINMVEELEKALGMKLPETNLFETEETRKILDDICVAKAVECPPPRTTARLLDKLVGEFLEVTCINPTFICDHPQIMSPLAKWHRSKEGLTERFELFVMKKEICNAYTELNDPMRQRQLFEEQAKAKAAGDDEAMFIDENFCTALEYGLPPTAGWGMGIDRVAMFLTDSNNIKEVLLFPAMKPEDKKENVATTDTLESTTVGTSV

In the case of GGUCUUUACAGUGCUUACUUCUCGAGCCCCCUACAGGGCUCCA (ssRNA) [HF RNA], where the note is “F-hairpin only, D-arm deleted”, the binding result is reported as “no binding”. For the molecule GCGCAAUCGGUAGCGCCUCUUUACAGUGCUUAGUUCUC (ssRNA) [HD RNA], the binding result (D-arm only, F-hairpin deleted) is listed as “no binding”.
